Experiments:
α4β7 integrin [1] = biological target: T1, α4β7 integrin (UniProt P13612 34-970; P26010 20-723, limits assumed); assay: MadCAM-1 competitive ELISA; coated α4β7 integrin, Fc-tagged MadCAM-1 as competitor; lowest of 24 batches
Method: (§1) In still another alternative one can measure MadCAM-1 competitive binding by ELISA. The aim of this assay is to test the ability of natalizumab to inhibit interaction of α₄β₇ integrin with its cognate receptor—MadCAM-1 protein in a dose-dependent manner. Constant amount of the coated α₄β₇ integrin is incubated with serial dilutions of natalizumab in the presence of Fc-tagged MadCAM-1 receptor. Natalizumab and MadCAM-1 receptor now compete for binding to solid-phase associated α₄β₇ integrin. The higher the natalizumab concentration the more MadCAM-1 is inhibited from binding to α₄β₇ integrin. The lowest signal result is observed when no natalizumab is present. […] is subsequently detected with a POD-conjugated anti-human IgG antibody and a TMB-substrate reaction at the end of the assay. Data are analyzed with 4PL fitting model. Final result is expressed as a Relative Potency (REP) of tested sample in relation to reference standard. The method variability was determined at the level of 8% coefficient variation (CV) of intermediate precision within the qualification exercise. Additionally accuracy, linearity and specificity were tested.

α4β7 integrin [2] = biological target: T1, α4β7 integrin; assay: MadCAM-1 competitive ELISA; coated α4β7 integrin, Fc-tagged MadCAM-1 as competitor; highest of 24 batches
Method: as §1

HIS-tagged α4β1 integrin [3] = biological target: T2, HIS-tagged α4β1 integrin (UniProt P13612 34-977; P05556 21-728, limits assumed); assay: VCAM-1 competitive ELISA; coated VCAM-1 as competitor, HIS-tagged α4β1 integrin in solution; 26 batches, n=3
T2 construct: Soluble, HIS-tagged
Method: (§2) Alternatively, one can also measure VCAM-1 competitive binding by ELISA. The aim of this assay is to test the ability of natalizumab to inhibit interaction of α₄β₁ integrin with its cognate receptor VCAM-1 protein in a dose-dependent manner. Constant amount of the coated VCAM-1 protein is incubated with serial dilutions of natalizumab in the presence of HIS-tagged α₄β₁ integrin. Solid-phase associated VCAM-1 and soluble natalizumab now compete for binding to α₄β₁, integrin. The higher the natalizumab concentration the more α4β1 integrin is inhibited from binding to VCAM-1. The highest signal result is observed when no natalizumab is present. Bound HIS-tagged α₄β₁ integrin is subsequently detected with a biotinylated anti-HIS-tag antibody, POD-conjugated Streptavidin and a TMB-substrate reaction at the end of the assay. Data are analyzed with 4PL fitting model. Final result is expressed as a Relative Potency (REP) of tested sample in relation to reference standard. The method variability was determined at the level of 7% coefficient variation (CV) of intermediate precision within the qualification exercise. Additionally accuracy, linearity and specificity were tested.

HIS-tagged α4β1 integrin [4] = biological target: T2, HIS-tagged α4β1 integrin; assay: VCAM-1 competitive ELISA; coated VCAM-1 as competitor, HIS-tagged α4β1 integrin in solution; lowest of 26 batches
Method: as §2

HIS-tagged α4β1 integrin [5] = biological target: T2, HIS-tagged α4β1 integrin; assay: VCAM-1 competitive ELISA; coated VCAM-1 as competitor, HIS-tagged α4β1 integrin in solution; highest of 26 batches
Method: as §2

α4β7 integrin [6] = biological target: T1, α4β7 integrin; assay: MadCAM-1 competitive ELISA; coated α4β7 integrin, Fc-tagged MadCAM-1 as competitor, bound natalizumab detected; 24 batches, n=3
Method: as §1

B1: Natalizumab reference product (Referent batches) (antibody, human IgG4, kappa, V domains shown)
VH: QVQLVQSGAEVKKPGASVKVSCKASGFNIKDTYIHWVRQAPGQRLEWMGRIDPANGYTKYDPKFQGRVTITADTSASTAYMELSSLRSEDTAVYYCAREGYYGNYGVYAMDYWGQGTLVTVSS
VL: DIQMTQSPSSLSASVGDRVTITCKTSQDINKYMAWYQQTPGKAPRLLIHYTSALQPGIPSRFSGSGSGRDYTFTISSLQPEDIATYYCLQYDNLWTFGQGTKVEIKR
- Relative Potency (REP), min (α4β7 integrin [1]): 0.83 REP (relative to reference standard)
- Relative Potency (REP), max (α4β7 integrin [2]): 1.17 REP (relative to reference standard)
- Relative Potency (REP), average (HIS-tagged α4β1 integrin [3]): 1.04 REP (relative to reference standard)
- Relative Potency (REP), min (HIS-tagged α4β1 integrin [4]): 0.916 REP (relative to reference standard)
- Relative Potency (REP), max (HIS-tagged α4β1 integrin [5]): 1.2 REP (relative to reference standard)
- Relative Potency (REP), average (α4β7 integrin [6]): 0.995 REP (relative to reference standard)
